# Experimental data reported in patent EP4349860A1 (Fundació Institut Hospital Del Mar D'Investigacions …, dated 2024).
# Read-outs that look alike come from different tables or passages of the source.
# B1: mAb17T2 (antibody, V domains shown)
# VH: QVQLVQSGPEVKKPGTSVKVSCKAPVFTFSISAVQWVRQARGQRLEWIGWIVVGSGNTNYAQNFQERVTITTDMSTGTVYMELSGLRSEDTAMYYCAAPYCNRTTCYDGFDLWGQGTMVTVSS
# VL: EIVLTQSPGTLSLSPGERATLSCRASQSISSNYLAWYQQKPGQAPRLLIYGASSRATGIPDRFSGSGSGTDFTLSINRLEPEDFAMYYCQHYGGLSRWTFGQGTKVEIKR
# Columns and labels:
# [1] = molecular target: T1, SARS-CoV-2 spike protein, Omicron BA.2 variant, on pseudovirus (SARS-CoV-2 (Omicron BA.2 variant)); assay: cell-based or functional assay
# [2] = molecular target: T2, SARS-CoV-2 spike protein, Alpha (B.1.1.7) variant, on pseudovirus (SARS-CoV-2 (Alpha variant)); assay: cell-based or functional assay
# [3] = molecular target: T3, SARS-CoV-2 spike protein, Beta (B.1.351) variant, on pseudovirus (SARS-CoV-2 (Beta variant)); assay: cell-based or functional assay
# [4] = molecular target: T4, SARS-CoV-2 spike protein, Gamma (P.1) variant, on pseudovirus (SARS-CoV-2 (Gamma variant)); assay: cell-based or functional assay
# [5] = molecular target: T5, SARS-CoV-2 spike protein, Delta (B.1.617.2) variant, on pseudovirus (SARS-CoV-2 (Delta variant)); assay: cell-based or functional assay
# [6] = molecular target: SARS-CoV-2 spike protein, Mu (B.1.621) variant, on pseudovirus (SARS-CoV-2 (Mu variant)); assay: cell-based or functional assay
# [7] = molecular target: T2, SARS-CoV-2 spike protein, Alpha …; assay: cell-based or functional assay; remark: listed apart in the source
# [8] = molecular target: T3, SARS-CoV-2 spike protein, Beta …; assay: cell-based or functional assay; remark: listed apart in the source
# [9] = molecular target: T4, SARS-CoV-2 spike protein, Gamma (P.1) …; assay: cell-based or functional assay; remark: listed apart in the source
# [10] = molecular target: T5, SARS-CoV-2 spike protein, Delta …; assay: cell-based or functional assay; remark: listed apart in the source
# [11] = molecular target: T1, SARS-CoV-2 spike protein, Omicron BA.2 …; assay: cell-based or functional assay; remark: listed apart in the source
# [12] = molecular target: SARS-CoV-2 spike protein, Omicron BA.4/BA.5 variants, on pseudovirus (SARS-CoV-2 (Omicron BA.4/BA.5 variants)); assay: cell-based or functional assay
# [13] = molecular target: T6, RBD of the SARS-CoV-2 spike protein, Beta (B.1.351) variant (SARS-CoV-2 (Beta variant), UniProt P0DTC2 319-541); assay: ELISA, plate coated with RBD at 2 µg/ml, anti-human IgG-HRP detection
# T6 construct: domain: RBD
# [14] = molecular target: T7, RBD of the SARS-CoV-2 spike protein, Gamma (P.1) variant (SARS-CoV-2 (Gamma variant), UniProt P0DTC2 319-541); assay: as above
# T7 construct: domain: RBD
# [15] = molecular target: T8, RBD of the SARS-CoV-2 spike protein, Delta (B.1.617.2) variant (SARS-CoV-2 (Delta variant), UniProt P0DTC2 319-541); assay: as above
# T8 construct: domain: RBD
binder,measurement,setting,value
B1,fold neutralizing activity compared to S2E12,[1],13.5 fold
same,fold neutralizing activity compared to S309,[1],41 fold
same,"IC50 (µg/ml), pseudotyped virus neutralization",[2],0.00666 µg/mL
same,"IC80 (µg/ml), pseudotyped virus neutralization",[2],0.014 µg/mL
same,"IC90 (µg/ml), pseudotyped virus neutralization",[2],0.0216 µg/mL
same,"IC50 (µg/ml), pseudotyped virus neutralization",[3],0.0022 µg/mL
same,"IC80 (µg/ml), pseudotyped virus neutralization",[3],0.00481 µg/mL
same,"IC90 (µg/ml), pseudotyped virus neutralization",[3],0.0076 µg/mL
same,"IC50 (µg/ml), pseudotyped virus neutralization",[4],0.0126 µg/mL
same,"IC80 (µg/ml), pseudotyped virus neutralization",[4],0.0218 µg/mL
same,"IC90 (µg/ml), pseudotyped virus neutralization",[4],0.0302 µg/mL
same,"IC50 (µg/ml), pseudotyped virus neutralization",[5],0.0105 µg/mL
same,"IC80 (µg/ml), pseudotyped virus neutralization",[5],0.0165 µg/mL
same,"IC90 (µg/ml), pseudotyped virus neutralization",[5],0.0215 µg/mL
same,"IC50 (µg/ml), pseudotyped virus neutralization",[6],0.00907 µg/mL
same,"IC80 (µg/ml), pseudotyped virus neutralization",[6],0.014 µg/mL
same,"IC90 (µg/ml), pseudotyped virus neutralization",[6],0.0181 µg/mL
same,"IC50 (µg/ml), pseudotyped virus neutralization",[7],0.0069 µg/mL
same,"IC50 (µg/ml), pseudotyped virus neutralization",[8],0.0027 µg/mL
same,"IC50 (µg/ml), pseudotyped virus neutralization",[9],0.0083 µg/mL
same,"IC50 (µg/ml), pseudotyped virus neutralization",[10],0.0096 µg/mL
same,"IC50 (µg/ml), pseudotyped virus neutralization",[11],0.0101 µg/mL
same,"IC50 (µg/ml), pseudotyped virus neutralization",[12],0.00203 µg/mL
same,EC50,[13],3.76 ng/mL
same,EC50,[14],3.08 ng/mL
same,EC50,[15],3.38 ng/mL
